The results in this text go back to publication PMC3077550 (Nature cell biology, 2011).

Changes are numbered by the printed parent chain.

The target of one experiment is T1, GST-PP2AB’α (Arabidopsis thaliana, UniProt O04375 1-495).
T1 sequence (looked up): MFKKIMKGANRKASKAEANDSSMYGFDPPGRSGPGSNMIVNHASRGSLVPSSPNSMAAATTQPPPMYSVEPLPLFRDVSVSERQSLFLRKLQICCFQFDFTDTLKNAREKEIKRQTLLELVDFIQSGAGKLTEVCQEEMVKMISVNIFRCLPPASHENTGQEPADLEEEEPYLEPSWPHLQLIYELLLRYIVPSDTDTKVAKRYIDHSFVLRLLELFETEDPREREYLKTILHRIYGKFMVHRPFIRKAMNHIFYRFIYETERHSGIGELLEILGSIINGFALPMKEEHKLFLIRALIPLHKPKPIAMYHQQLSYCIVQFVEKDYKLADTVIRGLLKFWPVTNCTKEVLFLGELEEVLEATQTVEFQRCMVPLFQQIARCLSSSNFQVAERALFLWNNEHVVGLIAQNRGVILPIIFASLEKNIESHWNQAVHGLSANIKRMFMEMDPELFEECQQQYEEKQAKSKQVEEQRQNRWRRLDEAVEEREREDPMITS
The experiment is described as follows: far-Western, overlay or dot blot.

The next experiment concerns the target T2, GST-BIN2 (Arabidopsis thaliana, UniProt Q39011 1-380).
T2 sequence (looked up): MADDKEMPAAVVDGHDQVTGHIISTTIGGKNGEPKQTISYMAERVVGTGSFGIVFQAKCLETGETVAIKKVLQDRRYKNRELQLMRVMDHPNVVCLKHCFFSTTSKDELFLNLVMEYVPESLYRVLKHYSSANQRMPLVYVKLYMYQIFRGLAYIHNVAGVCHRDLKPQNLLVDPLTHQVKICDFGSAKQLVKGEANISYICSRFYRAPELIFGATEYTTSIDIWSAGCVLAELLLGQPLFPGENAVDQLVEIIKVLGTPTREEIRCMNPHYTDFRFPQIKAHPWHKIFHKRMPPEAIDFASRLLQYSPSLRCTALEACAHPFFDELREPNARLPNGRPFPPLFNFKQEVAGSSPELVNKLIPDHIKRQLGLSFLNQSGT
The experiment can be described thus: far-Western, overlay or dot blot.

B1: MBP-BZR1 (unphosphorylated) (natural protein, Arabidopsis thaliana, UniProt Q8S307 1-336, looked up)
chain: MTSDGATSTSAAAAAAAAAAARRKPSWRERENNRRRERRRRAVAAKIYTGLRAQGDYNLPKHCDNNEVLKALCVEAGWVVEEDGTTYRKGCKPLPGEIAGTSSRVTPYSSQNQSPLSSAFQSPIPSYQVSPSSSSFPSPSRGEPNNNMSSTFFPFLRNGGIPSSLPSLRISNSCPVTPPVSSPTSKNPKPLPNWESIAKQSMAIAKQSMASFNYPFYAVSAPASPTHRHQFHTPATIPECDESDSSTVDSGHWISFQKFAQQQPFSASMVPTSPTFNLVKPAPQQMSPNTAAFQEIGQSSEFKFENSQVKPWEGERIHDVGMEDLELTLGNGKARG
Regarding B1, the binding result in the experiment with GST-PP2AB’α and with GST-BIN2 was “binds” in each case.

B2: MBP-bzr1-1D (natural protein, Arabidopsis thaliana, UniProt Q8S307 1-336, looked up)
chain: B1 chain with P234L
B2: the binding result with GST-PP2AB’α and with GST-BIN2 was “binds” throughout.
